Measured values as given in US20070256687A1, “Enhanced Medical Product” (priority 2004, published 2007).

Assay: Emitted dose of volumetrically dosed API/excipient mixtures delivered by a proprietary DPI
Assay type: physicochemical
From the text: In the course of developing methods and products according to the present invention different APIs were mixed with excipients in different ratios. The objectives were to find inter alia suitable formulations and methods of filling doses, but also to optimize inhaler techniques and interaction between inhaler and dose container. Table 1 below discloses some examples of volumetrically dosed mixtures API/excipient and the resulting emitted dose when delivered by a proprietary DPI. […] The objective was to find suitable excipients and to see how different mixing ratios affected the emitted dose. The mixtures were produced under laboratory conditions in small quantities and remained quasi-stable under the run of tests. The emitted dose as percentage of total recovered dose was measured and the results were used in the development of the current invention.

[1] = excipient Mannitole, ratio API/excipient 50/50, proprietary DPI
[2] = excipient Respitose®, ratio API/excipient 20/80, proprietary DPI

With insulin [Micronized insulin] the “Emitted Dose in % of recovered dose” value [1] was 83 % of recovered dose, the “Retention in % of recovered dose” value [1] was 17 % of recovered dose and the “Emitted Dose in % of recovered dose” value [2] was 93 % of recovered dose. The “Retention in % of recovered dose” value [2] was 7 % of recovered dose.
